According to PMC10873344:

How the values were obtained:
[1] = biological target: HRD1 (HMG-CoA reductase degradation 1), endogenous human, Q86TM6-3; assay: co-immunoprecipitation (FLAG-agarose IP, Western blot quantitation); settings: SEL1L-/- HEK293T cells; n = 3; mean ± SEM; parent: est. 1.0; read off a plot
[2] = biological target: OS9 (Osteosarcoma amplified 9), endogenous human (UniProt Q13438); assay: as above; settings: SEL1L-/- HEK293T cells; n = 3; mean ± SEM; parent: est. 1.0; read off a plot
[3] = biological target: HRD1 (HMG-CoA reductase degradation 1), endogenous human, Q86TM6-3; assay: as above; settings: SEL1L-/- HEK293T cells; n = 3; mean ± SEM; parent: est. 1.0; read off a plot; remark: listed apart in the source
[4] = biological target: OS9 (Osteosarcoma amplified 9), endogenous human (UniProt Q13438); assay: as above; settings: SEL1L-/- HEK293T cells; n = 3; mean ± SEM; parent: est. 1.0; read off a plot; remark: listed apart in the source
[5] = biological target: SEL1L^S658P, endogenous mouse (homozygous KI liver) (mouse (endogenous in liver)); assay: co-IP; IP of endogenous SEL1L or HRD1 (home-made antibody, protein A agarose) from livers of 5-week-old WT, HET and KI mice; 150 mM NaCl, 1% NP-40, 25 mM Tris-HCl pH 7.5
[6] = biological target: mouse SEL1L S658P/F668Y-FLAG (mouse); assay: co-IP; anti-FLAG agarose IP from lysates of SEL1L-/- HEK293T cells transfected with SEL1L-FLAG variants, blots for endogenous partners; 150 mM NaCl, 0.2% NP-40, 0.1% Triton X-100, 25 mM Tris-HCl pH 7.5, overnight at 4 C

Chain of UniProt Q13438 (Q13438 26-667): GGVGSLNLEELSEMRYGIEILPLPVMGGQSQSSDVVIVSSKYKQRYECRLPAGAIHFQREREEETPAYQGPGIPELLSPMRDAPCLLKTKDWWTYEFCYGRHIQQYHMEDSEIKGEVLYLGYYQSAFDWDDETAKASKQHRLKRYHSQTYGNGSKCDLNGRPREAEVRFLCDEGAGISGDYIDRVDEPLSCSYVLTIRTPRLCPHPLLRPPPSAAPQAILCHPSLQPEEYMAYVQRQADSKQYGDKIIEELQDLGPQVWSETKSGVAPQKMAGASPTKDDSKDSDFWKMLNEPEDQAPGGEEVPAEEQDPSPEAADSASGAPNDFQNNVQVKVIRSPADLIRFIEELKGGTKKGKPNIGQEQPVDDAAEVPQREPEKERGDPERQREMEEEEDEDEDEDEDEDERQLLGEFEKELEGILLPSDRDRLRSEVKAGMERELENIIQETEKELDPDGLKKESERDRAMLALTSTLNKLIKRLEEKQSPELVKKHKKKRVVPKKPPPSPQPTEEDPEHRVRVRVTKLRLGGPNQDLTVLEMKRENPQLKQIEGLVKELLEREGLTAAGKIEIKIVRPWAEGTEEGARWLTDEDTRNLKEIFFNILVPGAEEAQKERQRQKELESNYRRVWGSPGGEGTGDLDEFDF
Chain of HRD1 (HMG-CoA reductase degradation 1), endogenous human, Q86TM6-3 (Q86TM6 other isoform, or with tags, fused parts or gaps): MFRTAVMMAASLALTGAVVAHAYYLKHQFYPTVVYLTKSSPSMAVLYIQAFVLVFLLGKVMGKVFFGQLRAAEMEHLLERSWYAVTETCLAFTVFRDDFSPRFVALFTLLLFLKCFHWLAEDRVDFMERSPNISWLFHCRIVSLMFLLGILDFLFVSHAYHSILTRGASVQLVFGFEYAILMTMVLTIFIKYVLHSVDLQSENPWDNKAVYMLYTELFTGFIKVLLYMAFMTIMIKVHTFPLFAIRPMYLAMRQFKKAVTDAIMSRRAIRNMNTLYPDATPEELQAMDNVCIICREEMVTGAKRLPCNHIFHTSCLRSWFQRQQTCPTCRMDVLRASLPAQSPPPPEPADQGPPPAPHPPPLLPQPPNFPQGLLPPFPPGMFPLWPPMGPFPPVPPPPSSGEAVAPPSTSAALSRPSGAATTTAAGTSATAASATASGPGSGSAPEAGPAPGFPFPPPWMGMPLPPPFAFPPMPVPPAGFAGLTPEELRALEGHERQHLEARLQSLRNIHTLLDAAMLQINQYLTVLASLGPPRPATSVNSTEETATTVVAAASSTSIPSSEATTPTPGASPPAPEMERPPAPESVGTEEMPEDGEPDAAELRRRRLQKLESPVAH

Substance	response [2] [a.u.]	response [3] [a.u.]	response [4] [a.u.]	other results
mouse SEL1L (WT)-FLAG (from UniProt Q9Z2G6-1) F668Y	1	–	–	response [1]: 0.9 a.u.
mouse SEL1L (WT)-FLAG (from UniProt Q9Z2G6-1) S658P; F668A	–	0.11	0.97	–
HRD1, endogenous mouse (liver) (from UniProt Q9DBY1 1-612) (enzyme)	–	–	–	fold reduction against WT and HET livers [5]: 5 fold
mouse SEL1L (WT)-FLAG (from UniProt Q9Z2G6-1) F668A	–	0.07	1	–
mouse SEL1L (WT)-FLAG (from UniProt Q9Z2G6-1) S658P; F668Y	0.95	–	–	–
HRD1 (HMG-CoA reductase degradation 1), endogenous human (from UniProt Q86TM6-3 1-616) (enzyme)	–	–	–	fold increase against SEL1L S658P [6]: 2 fold
mouse SEL1L (WT)-FLAG (from UniProt Q9Z2G6-1) S658P	0.95	0.15	1	response [1]: 0.17 a.u.
